Key:
Test in all cases: flow cytometry, transfected 293T cells
[1] = target: T1, muCDH19(44-139)::huCDH19(142-249)::muCDH19(248-770) with Flag tag (construct D, Hu EC2) (human/mouse chimera)
T1 construct: leader left out; the entry starts at residue 44; also called C137913
T1 chain: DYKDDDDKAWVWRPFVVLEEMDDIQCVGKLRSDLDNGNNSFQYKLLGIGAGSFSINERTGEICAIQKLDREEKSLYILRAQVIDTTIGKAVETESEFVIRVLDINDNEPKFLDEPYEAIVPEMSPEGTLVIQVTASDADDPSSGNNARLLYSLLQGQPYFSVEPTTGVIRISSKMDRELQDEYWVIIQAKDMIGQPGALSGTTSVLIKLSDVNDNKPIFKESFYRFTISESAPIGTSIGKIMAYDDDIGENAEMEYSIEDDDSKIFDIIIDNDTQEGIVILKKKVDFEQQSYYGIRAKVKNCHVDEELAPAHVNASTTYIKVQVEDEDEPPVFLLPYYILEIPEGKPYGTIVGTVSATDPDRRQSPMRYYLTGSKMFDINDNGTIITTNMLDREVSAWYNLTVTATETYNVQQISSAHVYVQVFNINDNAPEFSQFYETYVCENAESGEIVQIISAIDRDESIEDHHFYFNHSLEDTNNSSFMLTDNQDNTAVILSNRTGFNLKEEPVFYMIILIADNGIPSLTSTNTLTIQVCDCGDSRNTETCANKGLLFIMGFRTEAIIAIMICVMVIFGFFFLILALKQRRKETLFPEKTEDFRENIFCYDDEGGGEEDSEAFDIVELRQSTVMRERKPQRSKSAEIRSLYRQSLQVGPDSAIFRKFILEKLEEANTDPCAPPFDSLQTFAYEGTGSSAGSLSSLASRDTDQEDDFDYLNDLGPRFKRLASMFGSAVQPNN
From the text: (§1) The experiment included assaying the anti-CDH19 antibodies against mouse Cadherin19 to determine suitability for binning on these human/mouse chimeras.

[2] = target: T2, muCDH19(44-362)::huCDH19(365-772) with Flag tag (construct G, Hu EC4-5) (human/mouse chimera)
T2 construct: leader left out; the entry starts at residue 44; also called C137917
T2 chain: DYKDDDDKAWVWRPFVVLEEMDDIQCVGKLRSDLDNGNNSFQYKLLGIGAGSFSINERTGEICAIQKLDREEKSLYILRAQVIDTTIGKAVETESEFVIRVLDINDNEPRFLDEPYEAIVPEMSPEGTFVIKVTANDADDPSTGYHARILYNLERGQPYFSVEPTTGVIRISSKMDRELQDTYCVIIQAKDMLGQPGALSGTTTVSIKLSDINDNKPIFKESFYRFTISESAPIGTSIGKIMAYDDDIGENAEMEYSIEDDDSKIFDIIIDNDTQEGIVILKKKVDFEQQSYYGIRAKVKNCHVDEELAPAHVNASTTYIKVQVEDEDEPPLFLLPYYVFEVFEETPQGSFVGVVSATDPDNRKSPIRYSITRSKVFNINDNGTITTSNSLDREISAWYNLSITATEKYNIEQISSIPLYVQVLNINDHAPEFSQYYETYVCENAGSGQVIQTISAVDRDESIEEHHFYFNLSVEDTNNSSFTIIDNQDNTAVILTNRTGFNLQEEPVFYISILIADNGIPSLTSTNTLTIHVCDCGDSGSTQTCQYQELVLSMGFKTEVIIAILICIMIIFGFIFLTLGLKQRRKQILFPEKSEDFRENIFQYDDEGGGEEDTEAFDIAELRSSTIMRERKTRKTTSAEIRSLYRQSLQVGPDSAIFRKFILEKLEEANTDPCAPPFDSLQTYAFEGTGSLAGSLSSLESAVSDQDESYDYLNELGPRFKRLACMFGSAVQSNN
From the text: as §1

[3] = target: T3, muCDH19(44-770) with Flag tag (construct I, Mu EC1-5) (mouse)
T3 construct: leader left out; the entry starts at residue 44; also called Mo EC1-5; mouse Cadherin19
T3 chain: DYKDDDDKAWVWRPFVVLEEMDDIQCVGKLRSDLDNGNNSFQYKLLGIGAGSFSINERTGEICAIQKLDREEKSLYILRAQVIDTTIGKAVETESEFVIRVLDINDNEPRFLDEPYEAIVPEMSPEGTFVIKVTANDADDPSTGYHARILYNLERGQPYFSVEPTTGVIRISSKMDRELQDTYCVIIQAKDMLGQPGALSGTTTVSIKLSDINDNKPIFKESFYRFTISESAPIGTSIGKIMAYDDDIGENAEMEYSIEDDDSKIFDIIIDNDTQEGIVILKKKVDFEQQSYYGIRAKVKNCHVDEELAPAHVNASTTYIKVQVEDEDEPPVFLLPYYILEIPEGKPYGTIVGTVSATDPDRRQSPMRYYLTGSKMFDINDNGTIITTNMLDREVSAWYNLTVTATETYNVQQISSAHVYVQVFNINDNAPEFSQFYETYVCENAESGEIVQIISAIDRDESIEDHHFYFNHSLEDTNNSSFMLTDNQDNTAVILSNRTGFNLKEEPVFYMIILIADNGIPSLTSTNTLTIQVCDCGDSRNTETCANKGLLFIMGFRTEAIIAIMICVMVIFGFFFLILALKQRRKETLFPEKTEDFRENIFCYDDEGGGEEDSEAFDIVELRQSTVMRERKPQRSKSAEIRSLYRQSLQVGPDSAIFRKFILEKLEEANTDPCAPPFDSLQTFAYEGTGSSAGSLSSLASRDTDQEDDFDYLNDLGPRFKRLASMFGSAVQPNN
From the text: as §1

Measured: binding result

B1: anti-CDH19 antibody 2G6 (Ab ID 13588) (antibody, human IgG1, lambda, V domains shown)
VH: QVQLVESGGGVVQPGRSLRLSCAASGFTFSSYGMHWVRQAPGKGLEWVAFIWYDGSNKYYADSVKDRFTISRDNSKNTLYLQMKSLRAEDTAVYYCARRAGIIGTIGYYYGMDVWGQGTTVTVSS
VL: SYELTQPPSVSVSPGQTASITCSGDRLGEKYTCWYQQRPGQSPLLVIYQDTKRPSGIPERFSGSNSGNTATLTISGTQAMDEADYYCQAWDSSTVVFGGGTKLTVLG
notes: Bin 4
binds: all assays above
